Substitutions are numbered along the chain they refer to.
T1: human NKG2D-Fc fusion protein (human, UniProt P26718 73-216)
T1 construct: extracellular domain; also called recombinant human NKG2D-Fc; human recombinant NKG2D; not shown: human IgG1 Fc domain
T1 sequence (looked up): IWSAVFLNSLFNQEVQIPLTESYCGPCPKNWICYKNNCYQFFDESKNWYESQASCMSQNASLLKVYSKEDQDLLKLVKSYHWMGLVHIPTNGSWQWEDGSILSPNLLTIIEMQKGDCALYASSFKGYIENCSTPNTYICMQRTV

T2: cynomolgus NKG2D-Fc fusion protein (cynomolgus; human, UniProt P61252 73-216)
T2 construct: extracellular domain; also called cynomolgus recombinant NKG2D-Fc; cynomolgus recombinant NKG2D; not shown: human IgG1 Fc domain
T2 sequence (looked up): T1 sequence (looked up) with D43N, T133I

T3: mouse NKG2D-Fc fusion protein (mouse; human, UniProt O54709 90-232)
T3 construct: extracellular domain; also called mouse recombinant NKG2D-Fc; recombinant mouse NKG2D-Fc; not shown: human IgG1 Fc domain
T3 sequence (looked up): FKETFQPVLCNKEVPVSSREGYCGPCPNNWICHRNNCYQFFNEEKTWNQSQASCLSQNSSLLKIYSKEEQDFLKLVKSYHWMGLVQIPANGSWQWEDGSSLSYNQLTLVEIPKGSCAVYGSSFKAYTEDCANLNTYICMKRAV

B1: ADI-27744 (antibody, V domains shown)
VH: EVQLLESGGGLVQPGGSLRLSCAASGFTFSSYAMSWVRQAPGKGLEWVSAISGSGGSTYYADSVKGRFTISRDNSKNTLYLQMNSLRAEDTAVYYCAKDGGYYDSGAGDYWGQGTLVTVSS
VL: DIQMTQSPSSVSASVGDRVTITCRASQGIDSWLAWYQQKPGKAPKLLIYAASSLQSGVPSRFSGSGSGTDFTLTISSLQPEDFATYYCQQGVSYPRTFGGGTKVEIK
notes: also called A44
B2: ADI-27749 (antibody, V domains shown)
VH: EVQLVESGGGLVKPGGSLRLSCAASGFTFSSYSMNWVRQAPGKGLEWVSSISSSSSYIYYADSVKGRFTISRDNAKNSLYLQMNSLRAEDTAVYYCARGAPMGAAAGWFDPWGQGTLVTVSS
VL: B1 VL with D30S, Y94F
notes: also called A49
B3: ADI-27705 (antibody, V domains shown)
VH: QVQLQQWGAGLLKPSETLSLTCAVYGGSFSGYYWSWIRQPPGKGLEWIGEIDHSGSTNYNPSLKSRVTISVDTSKNQFSLKLSSVTAADTAVYYCARARGPWSFDPWGQGTLVTVSS
VL: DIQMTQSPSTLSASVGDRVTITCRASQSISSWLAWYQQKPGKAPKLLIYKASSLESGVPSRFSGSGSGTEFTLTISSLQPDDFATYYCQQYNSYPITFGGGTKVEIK
B4: ADI-27724 (antibody, V domains shown)
VH: B3 VH
VL: not shown
B5: ADI-29403 (antibody, V domains shown)
VH: B3 VH
VL: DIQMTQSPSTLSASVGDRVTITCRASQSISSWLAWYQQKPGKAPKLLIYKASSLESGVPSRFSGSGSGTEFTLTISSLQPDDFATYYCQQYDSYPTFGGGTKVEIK
B6: ADI-28226 (antibody, V domains shown)
VH: B3 VH
VL: DIQMTQSPSTLSASVGDRVTITCRASQSISSWLAWYQQKPGKAPKLLIYKASSLESGVPSRFSGSGSGTEFTLTISSLQPDDFATYYCQQYGSFPITFGGGTKVEIK
notes: also called C26
B7: ADI-29419 (antibody, V domains shown)
VH: B3 VH
VL: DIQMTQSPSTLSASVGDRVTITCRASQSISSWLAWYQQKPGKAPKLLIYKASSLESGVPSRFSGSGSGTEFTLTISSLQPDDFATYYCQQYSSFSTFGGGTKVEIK
B8: ADI-29421 (antibody, V domains shown)
VH: B3 VH
VL: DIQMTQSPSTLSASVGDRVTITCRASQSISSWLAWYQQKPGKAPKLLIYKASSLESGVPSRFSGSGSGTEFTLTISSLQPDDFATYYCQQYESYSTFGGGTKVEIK
B9: ADI-29405 (antibody, V domains shown)
VH: B3 VH
VL: DIQMTQSPSTLSASVGDRVTITCRASQSISSWLAWYQQKPGKAPKLLIYKASSLESGVPSRFSGSGSGTEFTLTISSLQPDDFATYYCQQYGSFPTFGGGTKVEIK
B10: ADI-29401 (antibody, V domains shown)
VH: B3 VH
VL: B9 VL with S30G, G92D, S93I, F94Y
B11: ADI-27740 (antibody, V domains shown)
VH: B3 VH
VL: B9 VL with S30G, G92H, P95Y
notes: also called A40
B12: ADI-27741 (antibody, V domains shown)
VH: B3 VH
VL: B9 VL with S30G, Y91S, G92N, F94Y, P95Y
B13: ADI-27743 (antibody, V domains shown)
VH: B3 VH
VL: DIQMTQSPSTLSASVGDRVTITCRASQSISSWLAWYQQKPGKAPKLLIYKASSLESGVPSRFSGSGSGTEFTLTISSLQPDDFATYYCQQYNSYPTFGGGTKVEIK
B14: ADI-29426 (antibody, V domains shown)
VH: B3 VH
VL: B9 VL with S30G, G92H
B15: ADI-29447 (antibody, V domains shown)
VH: B3 VH
VL: B9 VL with G92D, S93T, P95I
notes: also called F47
B16: ADI-29407 (antibody, V domains shown)
VH: B3 VH
VL: B9 VL with G92Q
B17: ADI-29425 (antibody, V domains shown)
VH: B3 VH
VL: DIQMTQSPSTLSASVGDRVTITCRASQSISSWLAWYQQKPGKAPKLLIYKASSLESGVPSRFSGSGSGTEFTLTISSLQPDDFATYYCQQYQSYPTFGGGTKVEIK
B18: ADI-29399 (antibody, V domains shown)
VH: B3 VH
VL: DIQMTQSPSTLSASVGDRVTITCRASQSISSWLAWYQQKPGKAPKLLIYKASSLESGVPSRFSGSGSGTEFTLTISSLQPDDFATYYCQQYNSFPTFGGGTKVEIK
B19: ADI-29424 (antibody, V domains shown)
VH: B3 VH
VL: B9 VL with G92D, P95I
B20: ADI-29404 (antibody, V domains shown)
VH: B3 VH
VL: B9 VL with Q89E, G92D, F94Y
notes: also called F04
B21: ADI-29429 (antibody, V domains shown)
VH: B3 VH
VL: B6 VL with S30G, G92E, S93L, F94Y, P95S, I96Y
B22: ADI-27727 (antibody, V domains shown)
VH: QVQLVQSGAEVKKPGSSVKVSCKASGGTFSSYAISWVRQAPGQGLEWMGGIIPIFGTANYAQKFQGRVTITADESTSTAYMELSSLRSEDTAVYYCARGDSSIRHAYYYYGMDVWGQGTTVTVSS
VL: not shown
B23: ADI-29379 (antibody, V domains shown)
VH: QVQLVQSGAEVKKPGASVKVSCKASGYTFTSYYMHWVRQAPGQGLEWMGIINPSGGSTSYAQKFQGRVTMTRDTSTSTVYMELSSLRSEDTAVYYCARGAPNYGDTTHDYYYMDVWGKGTTVTVSS
VL: EIVMTQSPATLSVSPGERATLSCRASQSVSSNLAWYQQKPGQAPRLLIYGASTRATGIPARFSGSGSGTEFTLTISSLQSEDFAVYYCQQYDDWPFTFGGGTKVEIK
notes: also called E79
B24: ADI-29443 (antibody, V domains shown)
VH: QLQLQESGPGLVKPSETLSLTCTVSGGSISSSSYYWGWIRQPPGKGLEWIGSIYYSGSTYYNPSLKSRVTISVDTSKNQFSLKLSSVTAADTAVYYCARGSDRFHPYFDYWGQGTLVTVSS
VL: EIVLTQSPATLSLSPGERATLSCRASQSVSRYLAWYQQKPGQAPRLLIYDASNRATGIPARFSGSGSGTDFTLTISSLEPEDFAVYYCQQFDTWPPTFGGGTKVEIK
notes: also called F43
B25: ADI-29378 (antibody, V domains shown)
VH: QVQLVQSGAEVKKPGASVKVSCKASGYTFTSYYMHWVRQAPGQGLEWMGIINPSGGSTSYAQKFQGRVTMTRDTSTSTVYMELSSLRSEDTAVYYCAREGAGFAYGMDYYYMDVWGKGTTVTVSS
VL: B24 VL with R31S, F91S, T93N, P96F
notes: also called E78

What follows are binders tested against T1, human NKG2D-Fc fusion protein (assay: ELISA on coated NKG2D-Fc).

binding result	Binder
binds	B1
binds	B2
binds	B3
binds	B4
binds	B5
binds	B6
binds	B7
binds	B8
binds	B9
binds	B10
binds	B11
binds	B12
binds	B13
binds	B14
binds	B15
binds	B16
binds	B17
binds	B18
binds	B19
binds	B20
binds	B21
binds	B22
binds	B23
binds	B24
binds	B25

These binders were tested against T2, cynomolgus NKG2D-Fc fusion protein (assay: ELISA on coated NKG2D-Fc).

binding result	Binder
binds	B1
binds	B2
binds	B3
binds	B4
binds	B5
binds	B6
binds	B7
binds	B8
binds	B9
binds	B10
binds	B11
binds	B12
binds	B13
binds	B14
binds	B15
binds	B16
binds	B17
binds	B18
binds	B19
binds	B20
binds	B21
binds	B22
binds	B23
binds	B25

Each binder was assayed against T3, mouse NKG2D-Fc fusion protein (assay: ELISA on coated NKG2D-Fc).

binding result	Binder
binds	B1
binds	B2
binds	B3
binds	B4
binds	B5
binds	B6
binds	B7
binds	B8
binds	B9
binds	B10
binds	B11
binds	B12
binds	B13
binds	B14
binds	B15
binds	B16
binds	B17
binds	B18
binds	B19
binds	B20
binds	B21
binds	B22
binds	B23
binds	B24
binds	B25

Reference: patent US20210261668A1 (DRAGONFLY THERAPEUTICS, published 2021)
